Test [1] has as its target T1, HLA-A2/P68 peptide on T2 cells.
T1 construct: also called p68-DDX5
Nature of the test: FACS, T2 + P68 peptide. For orientation: In flow cytometry, cells or beads pass a laser one at a time.

Test [2] addresses HLA-A2/MART1(26) control peptide on T2 cells (human). The test is described as follows: FACS, T2 + MART1 peptide.
In test [3] the target is HLA-A2/MAGE-A4-A5 peptide on T2 cells (human). Nature of the test: FACS (MFI) vs native peptide, Ala-mutant peptide on T2 cells.
Test [4] deals with HLA-A2/MAGE-A4-A4 peptide on T2 cells (human). The test is described as above.
Test [5] deals with HLA-A2/MAGE-A4-A7 peptide on T2 cells (human). The description is as above.
The target in test [6] is HLA-A2/MAGE-A4-A6 peptide on T2 cells (human). The description is as above.
The target in test [7] is HLA-A2/MAGE-A4-A2 peptide on T2 cells (human). Described as above.

B1: 906-11-D11 TCR-like antibody (antibody, mouse IgG1, kappa, V domains shown)
VH: not shown
VL: DIQMTQSPSSLSASLGGKVTITCKASQDIHNYIAWYQHKPVKGPRLLIHYTSTLQPGTPSRFSGSGSGRDYSFSISNLEPEDIATYYCLQYDNLWTFGGGTKLEIKR
notes: also called Tyr D11
Turning to B1, the binding result in test [1] and in test [2] was “no binding” each time.

B2: 905-2-D7 TCR-like antibody (antibody, mouse IgG1, kappa, V domains shown)
VH: QVQLKESGPGLVAPSQSLSITCTVSGFSLTSYGVHWVRQPPGKGLEWLGVIWAGGTTNYNSALMSRLSISRDNSKSQVFLEMNSLQTDDTAIYYCARDGHFHFDFWGQGTTLTVSS
VL: DIQMTQSPASLSVSVGETVTITCRASDIIYSNLAWYQQKQGKSPQLLVYAATNLAAGVPSRFSGSGSGTQYSLKINSLQSEDFGTYYCQHFWGSSISFGSGTKLEIKR
notes: also called Tyr D7
For B2, the binding result in test [1] and in test [2] was “no binding” throughout.

B3: C106B9 TCR-like antibody (antibody, mouse IgG1, kappa, V domains shown)
VH: QVQLQQSGGEVMKPGASVKLSCKATGYTFTGYWIEWIKQRPGHGLEWIGEILPGSGGTNYNEKFKGKATFTAHTSSNTAYMQLSSLTTEDSAIYYCARDSNSFTYWGQGTLVTVSS
VL: QIVLTQSPAIMSASPGEKVTITCSVSSSVDYIHWFQQKPGTSPKFWIYSTSILASGVPARFSGSGSGTSYSLTISRMEAEDAATYYCQQRSSYPPTFGSGTKLEIKR
notes: also called MAGE-A4 C106B9
For the molecule B3, the “% decrease in binding” value came out at 90% in test [3]; 90% in test [4]; 90% in test [5]; 90% in test [6]; 33% in test [7].

The values are drawn from patent US20180179283A1 (ADICET BIO, published 2018).
